Experimental data from patent US20220119517A1.

What was measured:
[1] = molecular target: human Claudin18.1 (CLDN18.1), full length, on cells (human) (UniProt P56856); assay: FACS on CHO-K1-CLDN18.1 cells
[2] = molecular target: human Claudin18.2 (CLDN18.2), full length, on cells (human); assay: cell-based or functional assay
[3] = molecular target: human Claudin18.2 (CLDN18.2), full length, on cells (human); assay: FACS on NUGC4 cells

MFI (CLDN18.1) [1]: 219 MFI
in-vitro ADCC activity, Jurkat-CD16A/NF luciferase reporter, EC50 [2]: 13.5 nM
in-vitro ADCC activity, Jurkat-CD16A/NF luciferase reporter, Top [2]: 6190
MFI (CLDN18.2) [3]: 93 MFI
Substance: human IgG1, kappa isotype control antibody
ADCC cytotoxicity by LDH method, PBMC effectors, Max (%) [2]: 52%
